Earlier results, collected in patent US20240209043A1, “NON-ANTIBODY BINDING PEPTIDES AND THEIR ANALOGS DUAL-TARGETING TO PD-1 AND PD-L1, AND USES THEREOF” (ORAL SUBSIDIARY SUN YAT-SEN UNIVERSITY HOSPITAL, priority 2021, published 2024).

Biological target: PD-1 (Homo sapiens, UniProt Q15116)
Details: background section; read-out: Kd-value of antibody drug targeting PD-1

PD-1, sequence (Q15116 25-288): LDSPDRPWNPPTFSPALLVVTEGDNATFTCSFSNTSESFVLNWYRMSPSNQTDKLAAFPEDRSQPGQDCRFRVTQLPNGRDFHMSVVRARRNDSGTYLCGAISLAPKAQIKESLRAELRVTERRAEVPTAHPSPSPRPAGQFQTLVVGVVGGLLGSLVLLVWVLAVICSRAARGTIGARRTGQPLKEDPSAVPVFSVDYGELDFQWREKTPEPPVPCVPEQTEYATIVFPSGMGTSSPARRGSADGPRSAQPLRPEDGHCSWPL

Kd: 3.31 nM
B1: Camrelizumab (antibody, chains of the INN, looked up, V domains shown)
VH: EVQLVESGGGLVQPGGSLRLSCAASGFTFSSYMMSWVRQAPGKGLEWVATISGGGANTYYPDSVKGRFTISRDNAKNSLYLQMNSLRAEDTAVYYCARQLYYFDYWGQGTTVTVSS
VL: DIQMTQSPSSLSASVGDRVTITCLASQTIGTWLTWYQQKPGKAPKLLIYTATSLADGVPSRFSGSGSGTDFTLTISSLQPEDFATYYCQQVYSIPWTFGGGTKVEIK
notes: marketed IgG4 antibody drug targeting PD-1
